Test results from article PMC8699515, “Native llama Nanobody Library Panning Performed by Phage and Yeast Display Provides Binders Suitable for C-Reactive Protein Detection” (Biosensors, 2021).

B1: anti-CRP nanobody A6 displayed on phage (VHH)
VHH: EVQLQASGGGLVRPGGSLRLSCAVSGGTLSNYAVGWFRRAPGNQRELVATFTSGGTTLYADSVKGRFTISRDNLKNTVYLQMNSLKPEDTAVYYCAAKPGRASSQATDYDAWGQGTQVTVSS
notes: source: E. coli TG1 with M13K07 helper phage, phages in culture supernatant
B2: anti-CRP nanobody E12 fused to 6xHis-SpyTag (VHH)
VHH: EVQLQASGGGLVQAGGSLRLSCAASRRPSSFKVMGWYRQAPGKQRELVARITSGGSTDYADSVKGRFTISRDNAKNTVYLQMNSLEPEDTAVYYCNAYRWGRDNWGQGTQVTVSS
notes: pET14-derived vector; In the biosensor it was held by SpyCatcher attached to the gold electrode
B3: anti-CRP nanobody A12 fused to 6xHis-SpyTag (VHH)
VHH: EVQLQASGGGLVQAGGSLGLSCAASTRAFSTYAMGWFRQVPGKEREFVAAISSGGSTVYADSVKGRFTISRDNAKNTVYLQMNNLRPEDTAVYYCAARQGIVVRSPTRMDYWGQGTQVTVSS
notes: pET14-derived vector
B4: anti-CRP nanobody H7 fused to 6xHis-SpyTag (VHH)
VHH: EVQLQASGGGLVQAGGSLRLSCAASGRTFSSYATGWYRQAPGKERELVAAISSGGSTYYADSVKGRFTISRDNAKNTVYLQMNSLKAEDTAVYYCAGGRRVGVLIGNEYDYWGQGTLVTVSS
notes: pET14-derived vector
B5: anti-CRP nanobody A6 fused to 6xHis-SpyTag (VHH)
VHH: B1 VHH
notes: pET14-derived vector
B6: anti-CRP nanobody B9 displayed on phage (VHH)
VHH: EVQLQASGGGSVQAGGSLRLSCATSGIIFRNNIMTWYRQAPGKNRELVATITTGGSTNYSDSVKGRFTISRDNTKNTVYLQMSNLKPDDTGVYYCNARRNRFLTGSYGQGTQVTVSS
notes: as for B1
B7: anti-CRP nanobody B9 fused to 6xHis-SpyTag (VHH)
VHH: B6 VHH
notes: pET14-derived vector
B8: anti-CRP nanobody E12 displayed on phage (VHH)
VHH: B2 VHH
notes: as for B1
B9: C-reactive protein (CRP) from human pleural fluid (natural protein, UniProt P02741 19-224, looked up)
chain: QTDMSRKAFVFPKESDTSYVSLKAPLTKPLKAFTVCLHFYTELSSTRGYSIFSYATKRQDNEILIFWSKDIGYSFTVGGSEILFEVPEVTVAPVHICTSWESASGIVEFWVDGKPRVRKSLKKGYTVGAEASIILGQEQDSFGGNFEGSQSLVGDIGNVNMWDFVLSPDEINTIYLGGPFSPNVLNWRALKYEVQGEVFTKPQLWP
notes: C-reactive protein, human, purified from pleural fluid; source: bought: LEE Biosolutions (from human pleural fluid)
B10: anti-CRP nanobody C10 displayed on phage (VHH)
VHH: EVQLQASGGGLVQAGGSLRLSCAASGRTFSNYGMGWFRQAPGKEREFVAAITSGGSTYYRDSVKGRFTISRDNAKNTVYLQMNSLKPDDTAVYYCAASRGVTAIWGSSYDYWGQRTLVTVSS
notes: C10 gave no soluble 6xHis-SpyTag construct; source: E. coli TG1 with M13K07 helper phage, phages in culture supernatant
B11: anti-CRP nanobody A12 displayed on phage (VHH)
VHH: B3 VHH
notes: as for B1
B12: anti-CRP nanobody A10 displayed on phage (VHH)
VHH: EVQLQASGGGLVQAGGSLRLSCVASRSILSLAVMGWYRQAPGKERELVASITSGGNTNYADVVKGRFIISRDNAKNTVNLQMNTLRPEDTAVYYCSAKSILTGPNHWRQETQVTVSS
notes: as for B1
B13: anti-CRP nanobody C1 displayed on phage (VHH)
VHH: DVQLQASGGGLVQPGGSLRLSCRAPRMVFRRNVMGWFRQAPGKQRELVAYITNDGVTKYTDSVKGRFTISRDNAENTMYLQMNNLKTEDTAVYYCNVRRVLGIAGYWGQGTQVTVSS
notes: as for B1

What was measured:
[1] = biological target: B9; test: ELISA; phage screening ELISA: CRP 0.25 ug/well coated overnight at 4 C on MaxiSorp, saturated with 3% BSA-PBS; phages in culture supernatant (100 uL, not normalised) 2 h at room temperature; anti-M13 HRP, TMB, absorbance at 450 nm; ratio of the CRP signal to the BSA control, triplicates; conditions: one partner purified
[2] = biological target: B9; test: ELISA; CRP (0.5 ug/well) or BSA coated 2 h at 37 C; purified nanobodies 0.5 ug/well (A6, A12, B9, H7) or 0.1 ug/well (E12) in 2% BSA in PBS, 2 h at room temperature; anti-His and anti-mouse HRP, TMB; conditions: both partners purified
[3] = biological target: B9; test: ELISA; CRP (0.5 ug/well) or BSA coated overnight at 4 C; purified nanobodies 0.5 ug/well (A6, A12, B9, H7) or 0.1 ug/well (E12) in 2% BSA in PBS, 2 h at room temperature; anti-His and anti-mouse HRP, TMB; conditions: both partners purified
[4] = biological target: B9; test: BLI; Octet K2; CRP (25 nM) in PBS immobilised on aminopropylsilane (APS) tips, blocked with 1% BSA/PBS; nanobodies 10-1200 nM in 0.1% BSA/PBS; 30 C; 1:1 model, global fit; conditions: both partners purified
[5] = biological target: T1, BSA (Bos taurus, UniProt P02769); test: electrochemical impedance spectroscopy; gold electrode carrying E12-SpyTag held by SpyCatcher; CRP or BSA in solution; room temperature, 0.1 M KNO3 with 5 mM K3[Fe(CN)6]/K4[Fe(CN)6]; triplicate; conditions: both partners purified
T1 construct: BSA (serum albumin), used as negative control
T1 sequence (P02769 25-607): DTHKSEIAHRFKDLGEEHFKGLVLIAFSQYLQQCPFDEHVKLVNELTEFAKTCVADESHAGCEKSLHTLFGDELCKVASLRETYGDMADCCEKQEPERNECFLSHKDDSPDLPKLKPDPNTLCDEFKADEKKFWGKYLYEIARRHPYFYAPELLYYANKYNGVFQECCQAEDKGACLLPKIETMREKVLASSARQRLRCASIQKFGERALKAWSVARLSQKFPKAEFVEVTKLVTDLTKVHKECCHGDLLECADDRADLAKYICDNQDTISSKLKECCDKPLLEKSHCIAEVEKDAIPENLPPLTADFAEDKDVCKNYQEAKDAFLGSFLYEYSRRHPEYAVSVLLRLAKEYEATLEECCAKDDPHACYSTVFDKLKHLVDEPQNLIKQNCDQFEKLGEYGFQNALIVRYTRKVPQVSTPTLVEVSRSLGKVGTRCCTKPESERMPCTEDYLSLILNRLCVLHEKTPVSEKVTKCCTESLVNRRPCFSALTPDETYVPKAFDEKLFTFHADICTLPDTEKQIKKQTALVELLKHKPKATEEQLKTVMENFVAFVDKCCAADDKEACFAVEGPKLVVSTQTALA

[6] = biological target: T2, E12 fused to mouse Fc (E12-mFc) (llama); test: ELISA; short protocol (coating 2 h at 37 C) with CRP 1 to 10 ug/mL; 25 ug/mL E12-mFc; anti-mouse HRP, TMB; triplicate; conditions: both partners purified
T2 construct: as the VHH of m7

Row | Binder | Screening ELISA (CRP/BSA Signal) [1] | ELISA signal [2] | ELISA signal [3] | Kd [4] [nM] | also measured
1 | B1 | 11.8 | – | – | – | –
2 | B2 | – | 2.6 | 2.84 | 13 | binding result [5]: no binding (tested: 1 μg/mL)
3 | B3 | – | 0.974 | 1.23 | 122 | –
4 | B4 | – | 0.904 | 1.47 | 154 | –
5 | B5 | – | 0.231 | 0.476 | 51 | –
6 | B6 | 14.6 | – | – | – | –
7 | B7 | – | 2.28 | 1.56 | – | –
8 | B8 | 13.3 | – | – | – | –
9 | B9 | – | – | – | – | binding result [6]: binds
10 | B10 | 14.6 | – | – | – | –
11 | B11 | 15.5 | – | – | – | –
12 | B12 | 12.3 | – | – | – | –
13 | B13 | 12.5 | – | – | – | –
